The data set can be described thus: soluble on expression in E. coli; label from the status in PepcDB or PDB records.
Turning to “MSLEEDIQKQIIAAKEEAHDETIWGKPANDIITGIGNNSGVRPQRAIWEMVQNARDVSLNGKADIVFERQHDCFIFQHNGISFTNNTLEALILQTSSKVRNDSVQVGQYGTGFLTTHKLGLKFTLSSSVQLLENEQLFHHFSNFLIDRSSTDKKQMRDSLKKQIKITEEWARNPTIVSGPSSLTTFRYIQEHEVEKMNTKEAFKASSALAPYVIALNPCVNSISFVDNVEDCKELYIRKSTEIINTCDFYNVVKVTIDKCETESCDFTVLMLQSKETVEESGEPKVIVILPIKELESKSVAFALSKDVPNLFIYLPLLGTEQWGLNFIFHSPLFTCDKDSRDSLRFVGNGQNNDVDAERNKGIIQLADVIVSHYITENLSNIQDCMYLAKVAFNLHNSDEALANYYKSLQSSWVKKYESFPFVITKNGNIITRQAKVFDKELFDACLENKDLLTAVYNVTVQIYGTDYLPLETNMLFWSETLLQWYEAESFNPHLIHLSDIVEYIDKNNITTIGEENLWCIDNYIANSKQIGLFTKYKLLPTKNGELRVREDLLNPIIHDESLLKILDSLLPNDVASFIHTRFVLFEDVKIEEYDHNKVKESMRLLVSELSDLQKGHEIYRTNILAGLDVDSNKYEQNKLSDNHINALMGFYAYIVNIGGEAFQYKMIHLLADFYNIDLKSGEAYIKEIYDWRTVAPLLIKDALFRFTLMDSQKQAENAEWVRQMVIALYNYSDYRTYLDKYTVYPNEMDKYCYSKKISKSVNITNDLIALYDKIVNNENGENMCKSIKCVLLKNTYNDYFVENATIEGSSLAEKIMLEIKREGAYPDISANKWKQQILDIIAKQDKDVYWASIFGEIDSSKGAILLSVIQEKEKKDSILSLIRVSDTKKLKALAEVAEDDNLARIIELGKAALRDEMNSEADFEYKKKLGEYVEELIRKEIDSKLKAGSHIMEVLSQQDGQDIIILLDGTAIYYIEVKSRWSQKDSVLMSALQFRTSVEEKTHYALCEVDMITYNRENVDKHEFPDVEETINRISAIMNIGVLNETLKDTLNQDSDQVHVGGDYKVVVPQTVWEEHGKHFNELVEEIKKIVEEKEGHHHHHH”, the “soluble on expression in E. coli” value is given as “soluble”.

On to “MSLEEFVKTGKTVCILINKQGRIYYSNIGKDVAEKCLEDIHIFDHLPADGTVSYNVGYYTVTADTVDLDEAHYYLILIQPQGNLYKYAYRDSFTGLYNRNYWEQLISGKMHRPIPKRFTLIVIDVDNLKSLNDNRGHLAGDKAIRIVGKSIRESIRKQDIAVRYGGDEFFILLANTKKAIVEKVINRVKENIRKRGKEENIHIEISVGMACSNSINKLEKVITMADYNMYKEKREKKVQVKHIGEGHHHHHH”, for which the “soluble on expression in E. coli” value was “not soluble”.

As to “MSLEELVKKLGDKLNEAEADAKKFGKLIGRITRFESVSLKDNELIGVDIAFEDYLNSDVKKGQYLAIRSITRPVTILGQVRAITRADALSKLGIRELSYPKDPTTIITTTYVELKPIAEIENGKIRPPVSPVDPQSPVFIPNHDLIEKILNIPSRGITIGKIFSGGEETDASVRLDEYTLRHHTLILGTTGSGKTTLLKSMISSEEIDKGTFIFDRQGDFINYLIEKRRGFAVIMPVVEEASRSISLKDHAEKFANWYDCDNILDVKEDGVLEECNGSEVFLIPYSINFYSVLKNFNKITPYFTPKASMYWEAIVNNMFEIIGYDLYELADKKQTFYEDQLSDFLRDRLTPGSLLGKISGFYDLKMVSGSKSKQFSSYDGSKKMLTINMGKAFEEAMKRLDVPYQTKEAILRTLKAYDSYGIFTVPGTVDFKPKDVFSSYSDVVVDLSWVMNRSASIEAVATIAYKLLEDFFNWKDELYKMKETTKLTLVIMDEAHEYFPQTDQENVSKDIVEGLINRIMRLGRVRNIGVVLATHVPEDLNPLVLQLTNTKVVMRNESHVLRRLGLEEYEDFLRHATPGLAIVYSIYFSEVPIKTIQREGHHHHHH”, the “soluble on expression in E. coli” value was “soluble”.

Take “MSLEENDFDAIYIGNSKSMIKDYRGFVFTMRELREKFPNAVLITDLEPFFYPLAVYLGIDAFDIRSLKIYSYEGLGFTQFSPIIWDEPKEDPVEYAKKIIRLIRIAIHEGKLRYLVENFLPTSMNAGILRIADRENIEYLEKYTPVDDKTVVFISDYSMTRPEVYRWAKRVRERFEPPKDIELLLILPCSAKKPYSRSRSHTLYRSAVKEALGEKMHRVHELIVTSPYGVVPREWEWIAKYDIVVTGHWSEREVRLAGELLADVLEKYPDIPIIAHVEGGYREAVKLAMELSGRDVIFTAKGNSTTSRESLANLTKTLKEFDVRDVDKEYRRYRFYENIRKIFDFYFGLNAGYAVLPERAQVVGSKMLRLIVDNQQTGTFQEGVISVTPWGMQRIYDELHSYWVEIDFDVRGDIFAAGVGSADEKIRPNDWVGVVRDGKVVAVGRAVLSGEEMVKAKRGVAVKVKKKAKEGHHHHHH”: the “soluble on expression in E. coli” value is given as “not soluble”.

Regarding “MSLEKLMALYNISSPSGKEGKIAGFIIGELRRMGIPFRQDRYGNIYAVKGNRESYPCVVAHMDEVHRRKTGSYAAHLVADSMIVGYDHKRKRMTGIGADDKNGIWICLKCLEDFKAVKCAFFVQEEIGCIGSGHADMSFFSDCRFVIQCDRKGNGDMVTQINGMRLCSNEFISAVDPRKYGYKPAQGLATDVAALKRNGLEVSCVNLSCGYYEPHTDNEYTVLADLCKCYRFVRHIICCHKEGHHHHHH”, the “soluble on expression in E. coli” value is given as “soluble”.

For “MSLEKLTYAEVVNVIDGQVLGGRAGLHKTLNKFVIGAMELDAMMRYTAAGNLLIVGNRINAHRQALEAGAAVLVTGGFNTDDSIVQLADELELPILSTSYDTFTVAAMINRAIYDQLIKKEIVLVEDILTPADRTVYLSPKDKLEKWYEKNFETGHGRFPVVDDQMKIHGILTSKDIAGHDRNASIEKVMTKNPVTVIGKTSVASAAQMMVWEGIEVLPVTDGHQKLIGMISRQDVLKALQMIQKEGHHHHHH”, the “soluble on expression in E. coli” value is reported as “soluble”.

Regarding “MSLEKTKLPWDEFFSLNKDINHTYFTPEDFSGDEDLIAKTTEQFVKQEIVPQMENIEQHNYKVSRQLFEKAGELGLLGIEVPEDYGGFELGKAVSGLVAEKMGYAGAFSVSFNIHAGVGTLPYIYYGTKEQKEKYLPKIASGEWIGAYALTEPNAGSDALSAKTSAVLNEEGTAWKLNGEKQWITNAHMADVYVVFAKTNKGMTAFIVERTCEGVSIGLEEKKMGIKGSSTATLILEDVVIPAENVLGEVGKGHHVALNILNFARLKLAFGNIGTAKQAIGLSVQYGKERKQFQTELVDFTMIQEKIANMIIATYGAESAAYRTAGVIDEAIHESDEDLMKKMSQFAIECALNKVNASETLAYIVDEAVQIHGGYGYMQEYEVERLYRDARISRIFEGTNEINRLTVAKMLMKQIEQLEDTEVESDVANVERNHRYILLAKKLLKQSLKTLSKTPGLKIDQEQEYSRVISNMLTDVYVMESAFLRTRKAVSKNGEEKERTKQLITDVICEEGYRKVEEAAISVLSAAVTEEQDRHVILAEIRQLLVPLYTNVFTKKREIAKAIINRGKYIVEGHHHHHH”, the “soluble on expression in E. coli” value was “soluble”.

As to “MSLELSLADRPAIVTGASRGIGREIAARFAEAGGDVVVCSRTYEDVEAVATELTQTHDGRVVPVECDVTDREAVRDLVDTTIQEFGDIRVLVNNAGGADESANLLHRCDEETFESMVDLNLKSQFLLSKEVLPAMVAAGGGSIIHMGSVNGLFGIGLSGYSEAKSGLLALSRNIAAHYGQHGVRSNVISAATIETANRRAEMENTEERTGETSARERWLDQYPLGRFGTPREVADTTLFLASEMSSFLTGENLVLDGGLTTSLPTSFINEVYDADEKPTPNEGHHHHHH”, the “soluble on expression in E. coli” value was “soluble”.

Take “MSLENLQTNFSLVQGSTKKLNGMGDDGSPPAKKMITDIHVNGKTINKVPTVKKEHLDDYGEAPVETDGEHVKRTCTSVPETLHLNPSLKHTLAQFHLSSQSSLGGPAAFSARHSQESMSPTVFLPLPSPQVLPGPLLIPSDSSTELTQTVLEGESISCFQVGGEKRLCLPQVLNSVLREFTLQQINTVCDELYIYCSRCTSDQLHILKVLGILPFNAPSCGLITLTDAQRLCNALLRPREGHHHHHH”: the “soluble on expression in E. coli” value was “soluble”.

As to “MSLENTDINISALLNVDIDKILKQTIKEKIEKLMEIELNAYLEENPGIKNGKYKRDLKTKYGEIKQLNVPRDRDSNFHTQVIEPYNRSIGMEDLIVSMYSNGISTRRIAGIMEDILGNKYSKSTISRITDLTIEEVYKFINRPLDKRYIAVFLDGLFFYLRRGNVDKEPVIFALGIKETGEYEVLGFYLTVKESHNAYKEVLEDLYNRGLKEPLLIVADGIKNLDEEVMEIYPRSEFQLCTIHYARGLKSNVREKDIDEITIDANKMFKCDNKEEAIIRFNDFKYKWKSKYPKVIYNTEKNLGKLLRFYNYPVNIRKSLKSTNAIERFNGEVRRRVKTISSFPDEDSAMKVFYYKSIEYNSKHAFRKMNGYYKCKDEIKEMFQKREGHHHHHH”, the “soluble on expression in E. coli” value is given as “not soluble”.

With “MSLENVDPFDIIRQFRSVIAKTSLQASSNIEGLDTVWNSDLVLEANFWHLVEILLSFRTSQEFLDKESSISSKPYNSSIIFEKELLQKDKNLYQIWLIIVWIEGNFPFVEKPSNIPSSKWTNTLVTSGLMSSDLDYPLRDCSVVINDKDKADDHVFYKYVYELLLCGNYDQIFEECKLSDNITLNMIMCGMQEYVDPSIDVQLKDEFEVQQGVKKHSLWRRAVYSLSQNDKLDKYERAIYSYLAGDIPNDEVLQTLNWDSELLVYLNQILKIEVENYLLQNGKVNNDELILSLPSNTMDLQSILNLLSAKHPEESEHPIRVLIGSVMLNTIPSVLHSSVSMLMNVVTGIENDNDIFGEPYLLRVVTHMTIFLEILNPGTISESDKTKLITAYISILKSQELYDLIPIYISFLSHNEAIEASSFILSNLEGKDIRKKQLEICNFLKLPVEDMLKRTTQCVFAETEGHHHHHH”, the “soluble on expression in E. coli” value is “not soluble”.

Consider “MSLEPKIVRFDLGKEYIILTSALYPEGIIRVNQICSIFVDKSYCSGNPWGDVINWCPSKSAIMFMTAAKNYTFKETDWGKFFISAGIGRSGEDAGCTINIGVFVDKGLNINGLVDLIRTVTEAKAGALRDLGYKFTGTVSDAIAVGSLPGNEYFIGPGTELGKKIAYDIRNTIVELLFKGDDEGHHHHHH”, for which the “soluble on expression in E. coli” value is “soluble”.

Turning to “MSLEQELKLLFLRAHQRALSSLQFTEEAVDFLISCADGDARRLLNLLEQTKTACLTIKTAVVDVELLHNVIVQNSRRFDKGGEAFYDQISALHKSVRGSNPDAALYWLCRMLDGGVDPYYLARRIIRMSWEDIGLADPKAIQIANDAAATYERLGSPEGELALAQAVIYLSVAAKSNAGYVAFNQAMEFIKRDKSREVPIHLRNAPTQLMKKLGYGHEYRYAHDEPHGYAAGECYLPEGMPEVNWYNPVQRGLETKIAEKLAFLRQLDKDVKKEGHHHHHH”, the “soluble on expression in E. coli” value was “not soluble”.

For “MSLESGELIGACEFMKDRLYFATLRNRPKSTVNTHYFSIDEELVYENFYADFGPLNLAMVYRYCCKLNKKLKSYSLSRKKIVHYTCFDQRKRANAAFLIGAYAVIYLKKTPEEAYRALLSGSNPPYLPFRDASFGNCTYNLTILDCLQGIRKGLQHGFFDFETFDVDEYEHYERVENGDFNWIVPGKFLAFSGPHPKSKIENGYPLHAPEAYFPYFKKHNVTAVVRLNKKIYEAKRFTDAGFEHYDLFFIDGSTPSDNIVRRFLNICENTEGAIAVHCKAGLGRTGTLIACYVMKHYRFTHAEIIAWIRICRPGSIIGPQQHFLEEKQASLWVQGDIFRSKLKNRPSSEGEGHHHHHH”, the “soluble on expression in E. coli” value is reported as “soluble”.

On to “MSLESVQNYEAKSAHAHQAFFLKFEELKEVSKEQPRLEAEYPANTTKNYDHSRVRLTQLEGEPHSDYINANLVPGYTRPQEFIASQGPLKKTLENFWRLVREQQVRIIIMPTISMENGRVLCEHYWLTDSTPDTHGHITIHLLAEEPEDEWTKREFQLQHLLRGCPCGVGMGRTGTFVALSRLLQQLEEEQMVDVFHAVYALRMHQPLMIQTLSQYVFLHSCLLNKILEGPFNISESWPISVTDLPQACAKRAASANAGFLKEYEAIKDEAGFSAPPPGYEQDSPVSYDRSQGQFSPVEESPPDDMPEAWLFPGGPSGRDHTVLTGPAGPKELWELVWQHRAHVLVSLCPPNVMEKGESRKEREVQRLQFPYLEPGHELPATTLLPFLAAVGQCCSRGNNKKPGTLLSHSKCCWTMVSCSKGATQLGTFLAMEQLLQQAGSECTVDIFNVALQQSQACGLMTPTLITQQCLLLSDCTAPPPTEGHHHHHH”, for which the “soluble on expression in E. coli” value is “not soluble”.

Source of the values: the DeepSol protein solubility set.
